Drawing on publication PMC12094035, this text covers stoichiometry N for one substance.

For this assay, the target named is human γ-tubulin ring complex (γ-TuRC), the reconstituted complex without NEDD1 (human) (UniProt P23258). Description: cryo-EM structure; NEDD1-containing rec-γ-TuRC; free particles in micrographs of Aher et al. (2024), processed anew; consensus map 4.7 Å; model from AlphaFold 3 predictions fitted to the map and refined, side chains trimmed to β-carbons.

Consider “neural precursor cell expressed, developmentally downregulated 1 (NEDD1), full length, in the reconstituted human γ-TuRC (from UniProt Q8NHV4 1-660) (natural protein)”, for which the stoichiometry N is 4.
